Experimental data from article PMC3467072.

Target: T1, Rv3066 (TetR-family regulator) (Mycobacterium tuberculosis H37Rv, UniProt I6X658 1-202)
T1 sequence: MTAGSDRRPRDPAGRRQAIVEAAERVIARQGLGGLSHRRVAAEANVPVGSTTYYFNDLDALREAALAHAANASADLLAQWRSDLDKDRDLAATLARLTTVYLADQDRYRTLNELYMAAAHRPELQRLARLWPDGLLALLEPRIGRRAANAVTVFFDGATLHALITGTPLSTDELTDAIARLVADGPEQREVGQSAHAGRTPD
Test: fluorescence polarization

B1: 30-bp IR1 dsDNA, fluorescein (dsDNA)
DNA 1: CGAGCCTCCTTTGTGTACATTTGTACATGT
DNA 2: ACATGTACAAATGTACACAAAGGAGGCTCG
  Kd: 4.4 ± 0.3 nM
